From patent US7364741

Molecular target: T1, HLA-A3.2 molecules isolated from the EBV transformed cell line GM3107 (human)
Test: not given
Details: not given

Work on KVFPYALINK (modifications not checked) [probe peptide … for A3.2] yielded an IC50 of 30 nM.

Same assay, conditions: remark: other sources report otherwise

With KFYSKISEY (modifications not checked) [… (residues 75-83 of HPV16 protein E6)] the binding ratio to standard was 0.01.

Molecular target: T1, HLA-A3.2 molecules isolated from the …
Test: competition with radiolabeled probe [..], purified HLA-A3.2; IC50 standard / IC50 peptide
Details: not given

Going from SLYGTTLEQ (modifications not checked) [… (residues 89-97 of HPV16 protein E6)] to QQLLRREVY (modifications not checked) [… (residues 42-50 of HPV16 protein E6)], the binding ratio to standard falls from 0.008 to 0.0058.

In the case of TTLEQQYNK (modifications not checked) [… (residues 93-101 of HPV16 protein E6)], the binding ratio to standard is reported as 0.078.

Same assay, conditions: remark: other sources report otherwise

Going from AMFQDPQER (modifications not checked) [… (residues 7-15 of HPV16 protein E6)] to HLDKKQRFH (modifications not checked) [… (residues 125-133 of HPV16 protein E6)], the binding ratio to standard rises from 0.1 to 0.44.

With IVYRDGNPY (modifications not checked) [… (residues 59-67 of HPV16 protein E6)] the binding ratio to standard was 3.

Molecular target: HLA-A2.1 molecules expressed by 174CEM.T2 cells (human)
Test: T2 HLA-A2.1 stabilisation, flow cytometry (BB7.2), peptide 200 ug/ml
Details: not given

Going from LTNTGLYNL (modifications not checked) [… (residues 93-101 of HPV18 protein E6)] to YMLDLQPET (modifications not checked) [… (residues 11-19 of HPV16 protein E7)], the FI (Fluorescence Index) rises from 1.5 to 3.3.

FAFKDLFVV (modifications not checked) [… (residues 47-55 of HPV18 protein E6)] and KTVLELTEV (modifications not checked) [… (residues 36-44 of HPV18 protein E6)] are the same in FI (Fluorescence Index): 2.3 for the first, 2.3 for the second.

First: TIHDIILEC (modifications not checked) [… (residues 29-37 of HPV16 protein E6)]
Second: RLCVQSTHV (modifications not checked) [… (residues 66-74 of HPV16 protein E7)]
The FI (Fluorescence Index) of the first is lower: 1.8 for the first, 2.8 for the second.

Compared with MLDLQPETT (modifications not checked) [… (residues 12-20 of HPV16 protein E7)], KISEYRHYC (modifications not checked) [… (residues 79-87 of HPV16 protein E6)] is lower in FI (Fluorescence Index): 2.3 for the first, 2.2 for the second.

First: TLEDLLMGT (modifications not checked) [… (residues 78-86 of HPV16 protein E7)]
Second: PLCDLLIRC (modifications not checked) [… (residues 102-110 of HPV16 protein E6)]
The FI (Fluorescence Index) of the first is lower: 1.8 for the first, 2.1 for the second.

Compared with GTLGIVCPI (modifications not checked) [… (residues 85-93 of HPV16 protein E7)], DTLEKLTNT (modifications not checked) [… (residues 88-96 of HPV18 protein E6)] is lower in FI (Fluorescence Index): 2.3 for the first, 0.7 for the second.

Compared with FQQLFLNTL (modifications not checked) [… (residues 86-94 of HPV18 protein E7)], IHDIILECV (modifications not checked) [… (residues 30-38 of HPV16 protein E6)] is higher in FI (Fluorescence Index): 0.8 for the first, 1.3 for the second.

First: QLFLNTLSF (modifications not checked) [… (residues 88-96 of HPV18 protein E7)]
Second: LFLNTLSFV (modifications not checked) [… (residues 89-97 of HPV18 protein E7)]
The FI (Fluorescence Index) of the first is lower: 0.8 for the first, 1.6 for the second.

Going from LSFVCPWCA (modifications not checked) [… (residues 94-102 of HPV18 protein E7)] to SLQDIEITC (modifications not checked) [… (residues 24-32 of HPV18 protein E6)], the FI (Fluorescence Index) falls from 0.9 to 0.7.

Work on LCTELQTTI (modifications not checked) [… (residues 22-30 of HPV16 protein E6)] yielded an FI (Fluorescence Index) of 0.7.

First: LTNTGLYNL (modifications not checked) [… (residues 93-101 of HPV18 protein E6)]
Second: YMLDLQPET (modifications not checked) [… (residues 11-19 of HPV16 protein E7)]
The MF (mean fluorescence) of the first is higher: 352 for the first, 284 for the second.

Going from FAFKDLFVV (modifications not checked) [… (residues 47-55 of HPV18 protein E6)] to KTVLELTEV (modifications not checked) [… (residues 36-44 of HPV18 protein E6)], the MF (mean fluorescence) rises from 463 to 468.

First: TIHDIILEC (modifications not checked) [… (residues 29-37 of HPV16 protein E6)]
Second: RLCVQSTHV (modifications not checked) [… (residues 66-74 of HPV16 protein E7)]
The MF (mean fluorescence) of the first is lower: 184 for the first, 250 for the second.

Going from MLDLQPETT (modifications not checked) [… (residues 12-20 of HPV16 protein E7)] to KISEYRHYC (modifications not checked) [… (residues 79-87 of HPV16 protein E6)], the MF (mean fluorescence) falls from 218 to 212.

First: TLEDLLMGT (modifications not checked) [… (residues 78-86 of HPV16 protein E7)]
Second: PLCDLLIRC (modifications not checked) [… (residues 102-110 of HPV16 protein E6)]
The MF (mean fluorescence) of the first is lower: 183 for the first, 205 for the second.

First: GTLGIVCPI (modifications not checked) [… (residues 85-93 of HPV16 protein E7)]
Second: DTLEKLTNT (modifications not checked) [… (residues 88-96 of HPV18 protein E6)]
The MF (mean fluorescence) of the first is lower: 216 for the first, 238 for the second.

First: FQQLFLNTL (modifications not checked) [… (residues 86-94 of HPV18 protein E7)]
Second: IHDIILECV (modifications not checked) [… (residues 30-38 of HPV16 protein E6)]
The MF (mean fluorescence) of the first is higher: 244 for the first, 151 for the second.

First: QLFLNTLSF (modifications not checked) [… (residues 88-96 of HPV18 protein E7)]
Second: LFLNTLSFV (modifications not checked) [… (residues 89-97 of HPV18 protein E7)]
The MF (mean fluorescence) of the first is lower: 258 for the first, 360 for the second.

Going from LSFVCPWCA (modifications not checked) [… (residues 94-102 of HPV18 protein E7)] to SLQDIEITC (modifications not checked) [… (residues 24-32 of HPV18 protein E6)], the MF (mean fluorescence) falls from 262 to 244.

For LCTELQTTI (modifications not checked) [… (residues 22-30 of HPV16 protein E6)], the MF (mean fluorescence) was 114.

Same assay, conditions: remark: other sources report otherwise

Going from CVYCKQQLL (modifications not checked) [… (residues 37-45 of HPV16 protein E6)] to QLCTELQTT (modifications not checked) [… (residues 21-29 of HPV16 protein E6)], the FI (Fluorescence Index) rises from 2 to 2.2.

Going from KLPDLCTEL (modifications not checked) [… (residues 13-21 of HPV18 protein E6)] to ELTEVFEFA (modifications not checked) [… (residues 40-48 of HPV18 protein E6)], the FI (Fluorescence Index) falls from 2.1 to 1.1.

EITCVYCKT (modifications not checked) [… (residues 29-37 of HPV18 protein E6)] gave an FI (Fluorescence Index) of 0.5.

Going from CVYCKQQLL (modifications not checked) [… (residues 37-45 of HPV16 protein E6)] to QLCTELQTT (modifications not checked) [… (residues 21-29 of HPV16 protein E6)], the MF (mean fluorescence) rises from 195 to 212.

First: KLPDLCTEL (modifications not checked) [… (residues 13-21 of HPV18 protein E6)]
Second: ELTEVFEFA (modifications not checked) [… (residues 40-48 of HPV18 protein E6)]
The MF (mean fluorescence) of the first is higher: 439 for the first, 289 for the second.

With EITCVYCKT (modifications not checked) [… (residues 29-37 of HPV18 protein E6)] the MF (mean fluorescence) was 206.

Molecular target: HLA-A1 molecules isolated from the EBV transformed cell line Steinlin (human)
Test: competition with radiolabeled probe [..], purified HLA-A1; IC50 standard / IC50 peptide
Details: not given

Compared with EIDGPAGQA (modifications not checked) [… (residues 37-45 of HPV16 protein E7)], HVDIRTLED (modifications not checked) [… (residues 73-81 of HPV16 protein E7)] is lower in binding ratio to standard: 0.025 for the first, 0.014 for the second.

YRDGNPYAV (modifications not checked) [… (residues 61-69 of HPV16 protein E6)] was tested, and the binding ratio to standard was 0.008.

Molecular target: HLA-A11.2 molecules isolated from the cell line BVR (human)
Test: competition with radiolabeled probe [..], purified HLA-A11.2; IC50 standard / IC50 peptide
Details: not given

QQLLRREVY (modifications not checked) [… (residues 42-50 of HPV16 protein E6)] was tested, and the binding ratio to standard was 0.0084.

Same assay, conditions: remark: other sources report otherwise

Compared with AMFQDPQER (modifications not checked) [… (residues 7-15 of HPV16 protein E6)], IVYRDGNPY (modifications not checked) [… (residues 59-67 of HPV16 protein E6)] is lower in binding ratio to standard: 0.84 for the first, 0.47 for the second.

Molecular target: HLA-A24 molecules isolated from the EBV transformed cell line KT3 (human)
Test: competition with radiolabeled probe [..], purified HLA-A24; IC50 standard / IC50 peptide
Details: not given

First: VYDFAFRDL (modifications not checked) [… (residues 49-57 of HPV16 protein E6)]
Second: RAHYNIVTF (modifications not checked) [… (residues 49-57 of HPV16 protein E7)]
The binding ratio to standard of the first is lower: 0.061 for the first, 0.067 for the second.

First: RFHNIRGRW (modifications not checked) [… (residues 131-139 of HPV16 protein E6)]
Second: LLRREVYDF (modifications not checked) [… (residues 44-52 of HPV16 protein E6)]
The binding ratio to standard of the first is higher: 0.1 for the first, 0.0023 for the second.

MHQKRTAMF (modifications not checked) [… (residues 1-9 of HPV16 protein E6)] gave a binding ratio to standard of 0.0049.
